Experimental data from paper PMC10616557 (iScience, 2023).

Molecular target: the molecule itself
Experiment: cross-linking

| Protein | stoichiometry N |
| --- | --- |
| MGNASFGSKEQKLLKRLRLLPALLILRAFKPHRK (peptide, UniProt O95661 1-34, looked up) [DIRAS3 N-terminal extension peptide, wild type (NTEwt)] | 2 |
| MANASFGSKEQKLLKRLRLLPALLILRAFKPHRK (peptide, UniProt O95661 1-34, looked up) [DIRAS3 NTE peptide with mutation of the glycine myristoylation site (NTEG2A)] | 2 |
